In the nanobody polyreactivity screen of Harvey et al. (2022):

Assay: yeast display, Sf9 membrane polyspecificity reagent, FACS + sequencing; frameworks hold sequencing errors
Summary of the method: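 Nanobodies came from a synthetic yeast display library in Saccharomyces cerevisiae BJ5465, induced with galactose for 36–48 hours and stained for 1 hour at 4 °C with 10% biotinylated, detergent-solubilized Sf9 membrane reagent. Cells were enriched on streptavidin microbeads and then FACS-sorted, with low and high (top ~1%) gates set on anti-HA fluorescence for expression and streptavidin fluorescence for reagent binding. Each polyreactivity label reflects the gate a clone came from. Genes were amplified by colony PCR, sequenced by MiSeq 2 × 250 and filtered by CDR length.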

With “QVQLVESGGGLVQAGGSLRLSCAASGYIFGVYAMGWYRQAPGKERELVAAISYGVGSTYYADSVKGRFTISRDNAKNTVYLQMNSLKPEDTAVYYCAADVFFYVYEAYLLYYWGQGTQVTVSS” the “polyreactivity (PSR sort gate)” value was “low polyreactivity”.

For “QVQLVESGGRLVQAGGSLRLSCAASGGIFYYNAMGRYRQAPGKERELVAAIRYRGGSTYYADSVKGRFTISRDNAKNTVYLQMNSLKPEDTAVYYCAADYYRSRYYYWGQGTQVTVSS”, the “polyreactivity (PSR sort gate)” value was “low polyreactivity”.

In the case of “QVQLQERGGALVQAGGSLRLICAATGNITVTGFMGWYRQSPGKERELVASIAIGGTTYYADSVKGRFSISRDNAKNTVYLQRNSLKQEDTAVSYGAARYLYYAYSYWGQGTQVTVSS”, the “polyreactivity (PSR sort gate)” value is reported as “low polyreactivity”.

With “QVQLVESGGGLVQAGGSLRLSCAASGRIFTGYAMGWYRQAPGKERELVAAISSSGGTTYYADSVKGRFTISRDNAKNTVYLQMNSLKPEDTAVYYCATDYSYSVDALKYLLYDYWGQGTQVTVSS” the “polyreactivity (PSR sort gate)” value was “low polyreactivity”.

In the case of “QVQLVESGGGLVQAGGSLRLSCAASGFTFHGNAMGWYRQAPGKERELVAVISSSGASTYYADSVKGRFTISRDNAKNTVYLQMNSLKPEDTAVYYCAKVSSPLLYVSSDYDYWGQGTQVTVSS”, the “polyreactivity (PSR sort gate)” value is reported as “high polyreactivity”.

With “QVQLVESGGGLVQAGGSLRLSCAASGRTFYFYTLGWYRPAPGKERELVAAITSGGSTNYADSVKGRFTISRDNAKNTVYLQMNSLIPEDTAVYYCAAKYYRVYGYGLRMYYWGQGTQVTVSS” the “polyreactivity (PSR sort gate)” value was “high polyreactivity”.

In the case of “QVQLVESGGGLVQAGGSLRLSCAASGRTFYGYGMGWFRQAPGTDRELVAAIRVGGGSTYYADSVKGRFTISRDNAKNTVYLQMNILKPEDTAVYYCASAIYHYRQKDGYWGQGTQVTVSS”, the “polyreactivity (PSR sort gate)” value is reported as “high polyreactivity”.

With “QVQLQESGGGLVQAGGSLRLSCAASGTISQEDWMGLYRQAPGKEREFVAAIGLGSNTNYADSLKGRFTISRDNAKNTVYLQMNSLKPEDTAVYYCAVSVWQYSDHVYRGQGTQVTVSS” the “polyreactivity (PSR sort gate)” value was “low polyreactivity”.

With “QVQLVESGGGLVQAGGSLRLSCAASGSNFPLNPMGWYRPSPGKERELVAAISSSTGSTSYADSVKGRFTISRDNAKNTVYLQMNSLKPEDTAVYYCAAETPYIVDYWGQGTQVTVSS” the “polyreactivity (PSR sort gate)” value was “high polyreactivity”.

In the case of “QVQLVESGGGVVQAGGSLRLSCAASGFIYRWNAMGLNRQAPGKERELVAAMSARGGSTYDADSVKGRFTIARDNAKNTVYLPMNSLKPEDTAVYYCARAKRVHTEYDYWGQGTQVTVSS”, the “polyreactivity (PSR sort gate)” value is reported as “high polyreactivity”.

In the case of “QVQLVESGGGLVQAGGSLRLSCAASGRIFRFYAMGWYRQAPGKERELVAAINSRGGSTYYADSVKGRFTISRDNAKNTVYLQMNSLKPEDTAFYYCNARSGFGYGYGYWGQGTQVTVSS”, the “polyreactivity (PSR sort gate)” value is reported as “high polyreactivity”.

With “QVQLVESGGGLVQAGGSLRLSCAASGRTFRANAMEWYRQAPGKEREFVAVISLSGGGTYADSVKGRFTISRDNAKNTVYLQMNSLKPEDTAVYYCNRVPRRREYFHSNYLALFDYWGQGTQVTVSW” the “polyreactivity (PSR sort gate)” value was “low polyreactivity”.

For “QVQLVESGGGLVQAGCSLRLTCAASGFIFYYNAMGWYRQAPGKQKELVAAISWSDGGTYYADSVKGRFTISRDNAKNTVSLQMNRLKPEDTAVYYFSGDIDNWSEYDYWGQGTQVTVSS”, the “polyreactivity (PSR sort gate)” value was “low polyreactivity”.

With “QVQLVESGGGLVQAGGSLRLSCAASGRTFYIYAMGWYRQAPGKERELVADITSGGSTYYADSVKGRFTISRDNAKNTVYLQMNSLKPDDTAVYYCAADWVTFYSYTEYDYWGQGSQVTVSS” the “polyreactivity (PSR sort gate)” value was “low polyreactivity”.

With “QVQLVESGGGLVQAGGSLRLSCAASGRIFRNYAMGWYRQATGKERELVAAISTRSGSTYYADSVKGRSTISRDNAKNTVYLQMNSLKPEDTAVYYCNKVSVGRYYALYYWGQGTQVTVAS” the “polyreactivity (PSR sort gate)” value was “high polyreactivity”.

For “QVHLVDSGGGLVQAGGSLRLSCPASGFIFGLYVMGCYRQSPGKERELVAAITTSVGSTYYADSVKGRFTISRDNAKNTVYLQMNSLKPEDTSVYYCAKTSGTIDYDYWGQGTQVTVSS”, the “polyreactivity (PSR sort gate)” value was “low polyreactivity”.

In the case of “QVQLVESGGGSVQAGGSLRLSCAASGRTFVRYAMGWYRQAPGKERELVAAITWSGGSTYYADSVKGRFTISRDNAKNTVYLQMNSLKPEDTAVFNCADYPVQWGSLYDYWGQGTQVTVSS”, the “polyreactivity (PSR sort gate)” value is reported as “high polyreactivity”.

For “QVQLVESGGGLVQAGGSLRLSCAASGITFKRYAMGWYRQAPGKESELVATITWRDGSTYYADSVKGRFTISRDNAKNTVYLQMNSLKPEDTAVYYCAVAAYSRRSPYYHYNYWGQGTQVTVSS”, the “polyreactivity (PSR sort gate)” value was “high polyreactivity”.

With “QVQLVESGGGLVQAGGSLRLSCAASGSIFGTYAMGWYRQAPGKERELVARISGGGSTYYADSVKGRFTISRDNAKNTVYLQMNSLKPEDTAVYYCNVRKWAYWSHAIIYNYWGQGTQVTVSS” the “polyreactivity (PSR sort gate)” value was “high polyreactivity”.

With “QVQLVESGGGLVQAGGSLRLSGAASGRTLYGYAMGWYRQAPGKERELVARITGRDGSTDYADSVKGRFTISRDNAKNTVYFPMNSLKPEETAVYSCNARVRFHWYRSDYWGQGTEVTVSS” the “polyreactivity (PSR sort gate)” value was “high polyreactivity”.

With “QVQLVESGGGLVQAGGSLRLSCAASGRIFVWYAMGWYRQATGKERELVAAITRGGSTNYADSVKGRFTISRDNAKNTVYLQMNSLKPEDTAVYYCAARSPYRTRNDYWGQGTQVTVSS” the “polyreactivity (PSR sort gate)” value was “low polyreactivity”.

With “QVQLVESGGGLVQAGGSLRLSCAASGRIFRYNALGWYRQAPGKERELVAAITWNGASTFYADSVKGRFTISRDNAKNTVYLQMNSLKPEDTAVYYCATVRDISGYLYWSYNLYDYWGQGTQVTVSS” the “polyreactivity (PSR sort gate)” value was “high polyreactivity”.

In the case of “QVQLVESGGGLVQAGGSLRLSCAASGRTFYSYARGWYRQAPGKERELVAAINSGGDTYYADSVKGRFTISRDNAKNTVYLQMNSLKPEDTAVDYCAADIEVQYITLGVELPYDYWGQGTQVTVSS”, the “polyreactivity (PSR sort gate)” value is reported as “low polyreactivity”.

With “QVQLVESWGGLVQAGGSLRLSCAASGRTFYSNAMGWYRQAPGKERELVAAITSTDDSTYYADSVKGRFTISRDNAKNTVYLQMNSLKPEDTAVYYCNTDGLIAIRGLWWVEYDYWGQGTQVTVSS” the “polyreactivity (PSR sort gate)” value was “low polyreactivity”.

For “QVQIVESGGGIVQAGGSLRLSCGASGRTFYYYAMGWYRQAPGKERELVASITWSGSSTTYADSVKGRFTISRDNSKNTFVLQLNRLKQQASAVYYCAADPYFWGYHFRRYGSWGQGTQVTVSS”, the “polyreactivity (PSR sort gate)” value was “low polyreactivity”.

For “QVQLVESGGGLVQAGGRLRLSCAASGRTFANYARGGYRQAPGTERELVAAITSGGRTYYADSVKGRFTISRDNAKNTVYLQMNSLKPEDTPVYYCAAEITYLYDYWGQGTQVTVSS”, the “polyreactivity (PSR sort gate)” value was “high polyreactivity”.

With “QVQLVESGGGLVQAGGSLRLSCAASGRIFVPNAMGWYRPAPGKERELVAAISLRGGSTYYADSVKGRFTISRDNAKYTVYLQMNSLKPEDTAVYYCGWAYRYPHDYWGQGTQVTVSS” the “polyreactivity (PSR sort gate)” value was “high polyreactivity”.

For “QVQLVESGGGLVQAGGSLRLSCAASGRIFTYYAMGWYRQAPGKERELVAAISRRGGSTYYADSVKGRFTISRDNAKNTVYLQMNSLKPEDTAVYYCNAPTKAGGSHYWGQGTQVTVSS”, the “polyreactivity (PSR sort gate)” value was “high polyreactivity”.

In the case of “QVQLQESGGVLVQAGGSLRLSCAASGSIFVSVTMGWYRQAPGKERELVASIGRGSTTNHADSVKGRFTISRDNAKNIVYLLMNSLKPEDTAVYYCAALESYGKYHGYWGQGTQVTVSS”, the “polyreactivity (PSR sort gate)” value is reported as “low polyreactivity”.

In the case of “QVQLVESGGGLVQAGGSLRLSCAASGFIFAYYAMGWYRQAPGKERELVAAITIDGSTNYADSVKGRFTISRDNAKNTVYLQMNSLKPEDTAVYYCAAADHPPVWYGYWGQGTQVTVSS”, the “polyreactivity (PSR sort gate)” value is reported as “low polyreactivity”.

With “QVQLVESAGGLVQAGGSLRLSCAASGRTFHWYTMGWYRQAPGKEREFVAGINWSGARTYYADSVKGRFTISRDNAKNTVYLQMNSLKPEDTAVYYCAKRLWGIDFDYWGQGTQVTVSS” the “polyreactivity (PSR sort gate)” value was “high polyreactivity”.

With “QVQLVESGGGLVQAGGSLRLSCAASGSTSDSYAMGWYRQAPGKERELVAAISRGTNTYYADSVKGRFTISRDNAKNTVYLQLNRLKPEDTAVYYCNKVQYLRKYWVTPTGQRFGYWGQGTQVTVSS” the “polyreactivity (PSR sort gate)” value was “high polyreactivity”.

With “QVQLVESGGGLVQAGGSLRLSCAASGRILHGYAMGWYRQAPGKERELVAAITSSGGRTYYADSVKGRFTISRDNAKNPVYLQMNSLKPEDTAVYYCAADRPAYRTGESKYDYWGQGTQVTVSS” the “polyreactivity (PSR sort gate)” value was “low polyreactivity”.

With “QVQVVESGGGLVQAGGSLRLSCAASGRIFTGYAMGWYSQAPGTERELVAAISRGGSTNYADSVKGRFTISRDNAKNTVYLQMNSLKPEDTAVYYCAAGVHWDRGDYWGQGTQVTVSS” the “polyreactivity (PSR sort gate)” value was “low polyreactivity”.

In the case of “QVKHVESGGGLVQAGASLRLSCAASGSIFAYNAMGCYIQAPGKERELVATISRGGNTNYADSVKGRFTISRDNAKNSVYLQMNSLKPEDTAVYYCNVLGRDIDHEYGYWGQGTQVTVSS”, the “polyreactivity (PSR sort gate)” value is reported as “high polyreactivity”.

In the case of “QVQLVESGGGLVQAGGSLRLSCAASGSIFRYNAMGWYRQAPGKERELVASISWSGGSTYYADSVKGRFTISRDNAKNTVYLQMNSLKPEDNAFYYCNVYGKYFRSRYDSWGQGTQVNVSS”, the “polyreactivity (PSR sort gate)” value is reported as “high polyreactivity”.

With “QVQLVESGGGLVQAGGSLRISCAASGSTLYRNAMGWYRQAPGKEMELVAAISSSGGTTFYADSVKGRFTISRDNAKNTVYLQMNSLKPEDTAVYYCNRNARKLRTVHSSVFGLDYWGQGTQVTVSS” the “polyreactivity (PSR sort gate)” value was “low polyreactivity”.

In the case of “QVQLVESGGGLVQAGGSLRLSCAASGSIFYSNAMGWYRQAPGKERELVARITWSGGSTYYADSVKGRFTISRDNAKNTVYLQMNSLKPEDTAVYYCNKVIFRYFTTRPTRTYEYWGQGTQVTVSS”, the “polyreactivity (PSR sort gate)” value is reported as “low polyreactivity”.

With “QVQLVESGGGLVQAGGSLRLSCAASGSTFQVYAMGWYRQAPGKERELVASITSGGITYYADSVKGRFTISRDNAKNTVYLQMNSLKPEDTAVYYCAVDIRQSGELQRLFLYDYWGQGTQVTVSS” the “polyreactivity (PSR sort gate)” value was “low polyreactivity”.

In the case of “QVQLVESGGGLVQAGGSLRLSCAASGSTFRVYAMGWYRQAPGKERELVAAISWSGGRTYYADSVKGRFTISGDNAKNTVYLQMNSLKTEDTAVYYCAADTYGRYDYWGQGTQVTVSS”, the “polyreactivity (PSR sort gate)” value is reported as “high polyreactivity”.

With “QVQLVESGGGLVQAGGSLRLSCDASGSISIGYTMGWYRQAPGKERELVATISWSGGNTYYADSVKGRFTISRDNAKNTVYLQMNSLKPEDTAVYYCAARWYYYPLLYDYWGQGTQVTVSS” the “polyreactivity (PSR sort gate)” value was “low polyreactivity”.

With “QVQLVESGGGLVQAGGSLRLSCAASGSILEPYAMGWYRQAPGKERELVATIRRGGSTYYADSVKGRFTISRDNAKNTVYLQMNSLKPEDTAVYYCAADRSVQVTFDYWGQGTQVTVSS” the “polyreactivity (PSR sort gate)” value was “low polyreactivity”.

In the case of “QVQLVDSGGGLVHAGGSLRLSCAASGSTLIGNAMGWYRQAPWKERELVARISLRGGRTYYADSVKGRFTISRDNAKHTVYLQMNSLKPEDTAVYYCNRGGFSRYYYWGQGTQVTVSS”, the “polyreactivity (PSR sort gate)” value is reported as “low polyreactivity”.
